Measurements from PMC9224406.

Key:
[1] = target: human proBDNF V66M variant (human); assay: SAXS; hproBDNF V66M in solution at five concentrations (0.14–1.45 mg/mL), 50 mM Sodium Phosphate pH 7.0, 283 K; molecular mass from I(0) against BSA and from the Porod volume, compared with the calculated monomer mass
[2] = target: BDNF pro-peptide V66M pro-peptide (Homo sapiens) (UniProt P23560); assay: SPR; conditions: cited from earlier work
[3] = target: BDNF pro-peptide pro-peptide (Homo sapiens) (UniProt P23560); assay: SPR; conditions: cited from earlier work
Sequence of BDNF pro-peptide pro-peptide (Homo sapiens) (P23560 19-128): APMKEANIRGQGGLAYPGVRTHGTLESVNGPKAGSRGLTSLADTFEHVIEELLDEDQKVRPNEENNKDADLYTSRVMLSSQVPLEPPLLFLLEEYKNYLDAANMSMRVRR

Sequence of BDNF (P23560 129-247): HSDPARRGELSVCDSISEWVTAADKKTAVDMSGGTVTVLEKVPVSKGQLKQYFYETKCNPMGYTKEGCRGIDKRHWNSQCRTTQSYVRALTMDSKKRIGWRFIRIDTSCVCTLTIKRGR
Sequence of BDNF pro-peptide V66M pro-peptide (Homo sapiens) (P23560 19-128 V66M): as the sequence (P23560 19-128) above, with V48M counted along it

stoichiometry N [1]	Substance	Kd [2] [nM]	Kd [3] [nM]
2	human proBDNF V66M variant (natural protein)		
	BDNF (from UniProt P23560)	0.12	0.42
